{"source": "patent US20100041597A1", "about": "(published 2010)", "binders": {"B1": {"name": "PRE 3 (peptide)", "peptide": "Ac-AKGIQEVKGGDAQNLIGISI-NH2", "notes": "Synthetic peptide; also called peptide PRE 3"}, "B2": {"name": "PRE 12 (peptide)", "peptide": "Ac-KDAQNLI-NH2", "notes": "Synthetic peptide; also called peptide PRE 12; Ac-KDAQNLI-NH2"}, "B3": {"name": "PRE 13 (peptide)", "peptide": "Ac-RDAQNLI-NH2", "notes": "Synthetic peptide; also called peptide PRE 13; Ac-RDAQNLI-NH2"}, "B4": {"name": "PRE 4 (peptide)", "peptide": "Ac-KDAQNLIGISI-NH2", "notes": "Synthetic peptide; also called peptide PRE 4"}, "B5": {"name": "PRE 6 (peptide)", "peptide": "Ac-KDANQLIGISI-NH2", "notes": "Synthetic peptide; also called peptide PRE 6"}}, "key": {"[1]": {"molecular_target": "T1, PKC-ε (endogenous, human cell extracts) (human, UniProt Q02156 1-737)", "T1 construct": "Two bands on the blot, said to be alternate splicing variants; also called PKC-epsilon; PKC-ε Band 1", "T1 sequence (looked up)": "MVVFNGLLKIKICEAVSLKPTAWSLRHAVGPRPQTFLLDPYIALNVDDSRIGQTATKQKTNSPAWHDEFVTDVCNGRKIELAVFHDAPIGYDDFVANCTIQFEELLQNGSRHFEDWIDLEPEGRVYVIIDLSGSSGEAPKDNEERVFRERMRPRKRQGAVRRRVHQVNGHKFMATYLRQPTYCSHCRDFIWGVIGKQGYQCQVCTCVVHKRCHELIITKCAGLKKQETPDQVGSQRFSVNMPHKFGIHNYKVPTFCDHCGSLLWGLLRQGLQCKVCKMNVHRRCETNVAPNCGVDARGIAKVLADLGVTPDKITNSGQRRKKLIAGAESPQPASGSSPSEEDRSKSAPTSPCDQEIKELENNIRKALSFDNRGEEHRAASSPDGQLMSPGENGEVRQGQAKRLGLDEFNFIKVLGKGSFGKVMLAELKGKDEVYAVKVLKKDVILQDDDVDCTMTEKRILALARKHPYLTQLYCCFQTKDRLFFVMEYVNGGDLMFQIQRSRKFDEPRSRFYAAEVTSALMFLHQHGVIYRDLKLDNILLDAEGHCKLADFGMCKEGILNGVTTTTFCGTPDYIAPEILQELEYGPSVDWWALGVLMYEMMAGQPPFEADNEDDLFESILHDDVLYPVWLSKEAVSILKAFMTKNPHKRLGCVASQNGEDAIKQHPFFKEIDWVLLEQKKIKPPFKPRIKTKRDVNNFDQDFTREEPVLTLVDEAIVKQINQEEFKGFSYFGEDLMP", "test": "Protocol B blot competition, IMR-32 extract, competitor anti-PKC-ε Ab, Band 1; PRE 100 µg", "method": "(§1) The ability of the peptides PRE 2 and PRE 3 (see Table 3) to interfere with the binding of a PKC-α-specific polyclonal antibody (Santa Cruz Biotechnology, Inc.) to PKC-α was determined using a modified version of the protocol outlined above in which the test peptide was added directly to the cell extract prior to electrophoresis at a concentration of either 5× or 15× the concentration of the protein applied to each well of the gel for the Western blots (20 μg).\n(§2) Peptides PRE 2, PRE 3 and PRE 4 (see Table 3) were tested for their ability to interfere with the binding of isoform-specific polyclonal antibodies (Santa Cruz Biotechnology, Inc.) to PKC-ε using the general protocol described in Example 3. Two bands, representing alternate splicing variants of PKC-ε, were identified on the Western blot using this anti-PKC-ε antibody."}, "[2]": {"molecular_target": "T1, PKC-ε (endogenous, human cell extracts)", "test": "Protocol B blot competition, IMR-32 extract, competitor anti-PKC-ε Ab, Band 2; PRE 50 µg", "method": "as §1, §2"}, "[3]": {"molecular_target": "T1, PKC-ε (endogenous, human cell extracts)", "test": "Protocol B blot competition, IMR-32 extract, competitor anti-PKC-ε Ab, Band 2; PRE 100 µg", "method": "as §1, §2"}, "[4]": {"molecular_target": "T1, PKC-ε (endogenous, human cell extracts)", "test": "Protocol B blot competition, IMR-32 extract, competitor anti-PKC-ε Ab, Band 2; PRE 20 µg", "method": "as §1, §2"}, "[5]": {"molecular_target": "T1, PKC-ε (endogenous, human cell extracts)", "test": "Protocol B blot competition, IMR-32 extract, competitor anti-PKC-ε Ab, Band 1; PRE 50 µg", "method": "as §1, §2"}, "[6]": {"molecular_target": "T1, PKC-ε (endogenous, human cell extracts)", "test": "Protocol B blot competition, IMR-32 extract, competitor anti-PKC-ε Ab, Band 1; PRE 20 µg", "method": "as §1, §2"}, "[7]": {"molecular_target": "T2, PKC-βI (purified isoform) (Homo sapiens (Human), UniProt P05771 2-671)", "T2 construct": "also called PKC-beta I", "T2 sequence (P05771 2-671 limits assumed)": "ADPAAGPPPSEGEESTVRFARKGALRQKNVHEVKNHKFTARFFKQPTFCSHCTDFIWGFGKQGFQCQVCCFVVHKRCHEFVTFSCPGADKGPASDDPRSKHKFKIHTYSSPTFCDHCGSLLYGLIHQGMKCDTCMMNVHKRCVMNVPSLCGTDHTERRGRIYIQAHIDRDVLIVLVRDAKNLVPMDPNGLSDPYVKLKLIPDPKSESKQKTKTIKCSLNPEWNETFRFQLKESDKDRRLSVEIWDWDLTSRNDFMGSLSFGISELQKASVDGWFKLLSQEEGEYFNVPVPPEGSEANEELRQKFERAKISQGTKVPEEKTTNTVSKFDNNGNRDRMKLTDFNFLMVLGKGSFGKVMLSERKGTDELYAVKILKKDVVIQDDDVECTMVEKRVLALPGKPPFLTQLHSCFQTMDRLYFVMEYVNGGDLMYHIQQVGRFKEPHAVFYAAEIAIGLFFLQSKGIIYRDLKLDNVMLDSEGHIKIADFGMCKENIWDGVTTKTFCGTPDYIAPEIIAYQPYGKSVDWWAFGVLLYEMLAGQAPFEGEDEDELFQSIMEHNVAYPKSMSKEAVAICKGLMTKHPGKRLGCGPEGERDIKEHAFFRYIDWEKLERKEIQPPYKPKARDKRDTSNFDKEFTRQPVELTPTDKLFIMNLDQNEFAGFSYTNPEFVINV", "test": "summary grade, purified isoform ELISA"}, "[8]": {"molecular_target": "T3, PKC-ε (purified isoform) (Homo sapiens (Human), UniProt Q02156 1-737)", "T3 construct": "also called PKC-epsilon; PKCepsilon", "T3 sequence": "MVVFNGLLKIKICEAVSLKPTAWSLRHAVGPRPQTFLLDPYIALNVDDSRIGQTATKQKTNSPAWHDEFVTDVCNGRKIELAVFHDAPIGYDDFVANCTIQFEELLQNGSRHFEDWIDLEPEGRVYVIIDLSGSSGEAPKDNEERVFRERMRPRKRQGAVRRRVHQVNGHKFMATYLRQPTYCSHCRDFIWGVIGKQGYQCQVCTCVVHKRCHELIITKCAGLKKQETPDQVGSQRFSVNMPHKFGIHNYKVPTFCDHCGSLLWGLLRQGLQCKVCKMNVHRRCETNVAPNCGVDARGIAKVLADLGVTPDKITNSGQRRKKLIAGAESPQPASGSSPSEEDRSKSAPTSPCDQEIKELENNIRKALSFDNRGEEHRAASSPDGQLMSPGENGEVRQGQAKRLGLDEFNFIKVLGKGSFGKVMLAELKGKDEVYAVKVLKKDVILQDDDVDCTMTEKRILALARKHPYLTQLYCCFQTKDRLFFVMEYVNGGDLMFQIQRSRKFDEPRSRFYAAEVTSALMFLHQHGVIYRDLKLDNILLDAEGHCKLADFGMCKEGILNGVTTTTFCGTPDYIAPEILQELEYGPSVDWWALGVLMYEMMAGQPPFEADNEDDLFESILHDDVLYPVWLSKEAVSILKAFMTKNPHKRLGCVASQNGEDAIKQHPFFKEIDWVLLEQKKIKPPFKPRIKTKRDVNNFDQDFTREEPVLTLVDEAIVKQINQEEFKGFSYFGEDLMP", "test": "summary grade, purified isoform ELISA"}, "[9]": {"molecular_target": "T4, PKC-βII (purified isoform) (Homo sapiens (Human), UniProt P05771 2-621)", "T4 construct": "also called PKC-beta II", "T4 sequence (P05771 other isoform, or with tags, fused parts or gaps limits assumed)": "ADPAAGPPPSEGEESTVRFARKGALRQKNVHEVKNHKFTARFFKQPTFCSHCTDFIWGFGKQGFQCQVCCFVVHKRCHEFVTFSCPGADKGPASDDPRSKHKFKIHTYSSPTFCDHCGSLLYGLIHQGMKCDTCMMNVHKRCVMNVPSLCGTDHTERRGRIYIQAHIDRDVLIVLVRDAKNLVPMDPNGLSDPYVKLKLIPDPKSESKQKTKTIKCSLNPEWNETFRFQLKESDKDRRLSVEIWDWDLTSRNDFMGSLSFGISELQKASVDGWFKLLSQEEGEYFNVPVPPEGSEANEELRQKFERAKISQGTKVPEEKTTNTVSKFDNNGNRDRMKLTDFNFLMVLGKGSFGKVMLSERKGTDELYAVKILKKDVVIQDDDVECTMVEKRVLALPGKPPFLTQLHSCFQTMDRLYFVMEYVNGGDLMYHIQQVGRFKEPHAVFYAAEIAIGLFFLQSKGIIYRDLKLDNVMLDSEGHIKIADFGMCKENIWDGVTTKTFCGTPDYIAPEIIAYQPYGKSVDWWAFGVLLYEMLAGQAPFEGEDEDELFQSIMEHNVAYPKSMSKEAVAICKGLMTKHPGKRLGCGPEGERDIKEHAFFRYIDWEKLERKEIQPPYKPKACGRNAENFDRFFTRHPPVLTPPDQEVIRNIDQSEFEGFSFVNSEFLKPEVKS", "test": "summary grade, purified isoform ELISA"}}}
{"binder": "B1", "values": [{"measurement": "band intensity", "setting": "[1]", "value": 0}, {"measurement": "inhibition (%)", "setting": "[1]", "value": 100, "unit": "%"}, {"measurement": "relative intensity (%)", "setting": "[1]", "value": 0, "unit": "%"}, {"measurement": "band intensity", "setting": "[2]", "value": 0}, {"measurement": "inhibition (%)", "setting": "[2]", "value": 100, "unit": "%"}, {"measurement": "relative intensity (%)", "setting": "[2]", "value": 0, "unit": "%"}, {"measurement": "band intensity", "setting": "[3]", "value": 0}, {"measurement": "inhibition (%)", "setting": "[3]", "value": 100, "unit": "%"}, {"measurement": "relative intensity (%)", "setting": "[3]", "value": 0, "unit": "%"}, {"measurement": "band intensity", "setting": "[4]", "value": 0}, {"measurement": "inhibition (%)", "setting": "[4]", "value": 100, "unit": "%"}, {"measurement": "relative intensity (%)", "setting": "[4]", "value": 0, "unit": "%"}, {"measurement": "band intensity", "setting": "[5]", "value": 0}, {"measurement": "inhibition (%)", "setting": "[5]", "value": 100, "unit": "%"}, {"measurement": "relative intensity (%)", "setting": "[5]", "value": 0, "unit": "%"}, {"measurement": "band intensity", "setting": "[6]", "value": 5.12}, {"measurement": "inhibition (%)", "setting": "[6]", "value": 99, "unit": "%"}, {"measurement": "relative intensity (%)", "setting": "[6]", "value": 0.12, "unit": "%"}]}
{"binder": "B2", "values": [{"measurement": "binding result", "setting": "[7]", "value": "no binding (tested: 200 µM)"}, {"measurement": "binding result", "setting": "[8]", "value": "no binding (tested: 200 µM)"}]}
{"binder": "B3", "values": [{"measurement": "binding result", "setting": "[7]", "value": "no binding (tested: 200 µM)"}, {"measurement": "binding result", "setting": "[8]", "value": "no binding (tested: 200 µM)"}, {"measurement": "binding result", "setting": "[9]", "value": "no binding (tested: 200 µM)"}]}
{"binder": "B4", "values": [{"measurement": "band intensity", "setting": "[1]", "value": 0}, {"measurement": "inhibition (%)", "setting": "[1]", "value": 100, "unit": "%"}, {"measurement": "relative intensity (%)", "setting": "[1]", "value": 0, "unit": "%"}, {"measurement": "band intensity", "setting": "[2]", "value": 0}, {"measurement": "inhibition (%)", "setting": "[2]", "value": 100, "unit": "%"}, {"measurement": "relative intensity (%)", "setting": "[2]", "value": 0, "unit": "%"}, {"measurement": "band intensity", "setting": "[3]", "value": 0}, {"measurement": "inhibition (%)", "setting": "[3]", "value": 100, "unit": "%"}, {"measurement": "relative intensity (%)", "setting": "[3]", "value": 0, "unit": "%"}, {"measurement": "band intensity", "setting": "[4]", "value": 153}, {"measurement": "inhibition (%)", "setting": "[4]", "value": 46.6, "unit": "%"}, {"measurement": "relative intensity (%)", "setting": "[4]", "value": 53.3, "unit": "%"}, {"measurement": "band intensity", "setting": "[5]", "value": 0}, {"measurement": "inhibition (%)", "setting": "[5]", "value": 100, "unit": "%"}, {"measurement": "relative intensity (%)", "setting": "[5]", "value": 0, "unit": "%"}, {"measurement": "band intensity", "setting": "[6]", "value": 184}, {"measurement": "inhibition (%)", "setting": "[6]", "value": 42.9, "unit": "%"}, {"measurement": "relative intensity (%)", "setting": "[6]", "value": 57.1, "unit": "%"}]}
{"binder": "B5", "values": [{"measurement": "binding result", "setting": "[9]", "value": "no binding (tested: 200 µM)"}]}
